Source: paper PMC7948469
pKd: −log10 of the molar value.

What was measured:
[1] = biological target: plasminogen-binding group A streptococcal M-protein (Streptococcus pyogenes (GAS isolate AP53)); test: SPR; PAM amine-coupled on a CM-5 chip (up to 250 RU); Pg flowed at 0-50 nM (hPg[D219N] up to 300 nM); 25 °C; HBS-EP+ (10 mM Na-Hepes/150 mM NaCl/3 mM EDTA/0.05% polysorbate 20, pH 7.4); 1:1 Langmuir fit; KD from koff/kon
[2] = biological target: mouse plasminogen (mouse); test: SPR; each Pg amine-coupled on a CM-5 chip (~1200 RU); SK1 flowed at 0-0.25 uM, SK2b at 0-2 uM; 25 °C; HBS-EP+ with 50 uM p-nitrophenyl-p'-guanidinobenzoate; 1:1 Langmuir fit; KD from koff/kon
[3] = biological target: mHC-hLC (mouse heavy chain-human light chain) chimeric plasminogen (mouse | human) (UniProt P00747); test: as above
[4] = biological target: hPg[D219N] (human Pg with a [D219N] mutation) (human); test: as above
[5] = biological target: human plasminogen (human); test: as above
[6] = biological target: hHC-mLC (human heavy chain-mouse light chain) chimeric plasminogen (human | mouse) (UniProt P00747); test: as above
[7] = biological target: mHC-hLC (mouse heavy chain-human light chain) chimeric plasminogen (mouse | human) (UniProt P00747)
[8] = biological target: hPg[D219N] (human Pg with a [D219N] mutation) (human)
[9] = biological target: human plasminogen (human)

Chain of plasminogen-binding group A streptococcal M-protein (Streptococcus pyogenes (GAS isolate AP53)) (P49054 30-380 limits assumed): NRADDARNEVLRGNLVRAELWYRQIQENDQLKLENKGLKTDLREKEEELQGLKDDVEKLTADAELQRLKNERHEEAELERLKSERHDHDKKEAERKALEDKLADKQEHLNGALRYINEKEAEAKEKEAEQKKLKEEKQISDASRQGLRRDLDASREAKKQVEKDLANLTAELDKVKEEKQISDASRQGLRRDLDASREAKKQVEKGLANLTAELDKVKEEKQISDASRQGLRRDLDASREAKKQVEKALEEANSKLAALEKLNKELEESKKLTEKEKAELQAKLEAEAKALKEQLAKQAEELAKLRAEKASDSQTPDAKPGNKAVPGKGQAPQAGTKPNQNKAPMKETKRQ

Row | Substance | pKd [1] | koff [1] [s⁻¹] | kon [1] [M⁻¹ s⁻¹] | pKd [2] | koff [2] [s⁻¹] | kon [2] [M⁻¹ s⁻¹] | pKd [3] | koff [3] [s⁻¹] | kon [3] [M⁻¹ s⁻¹] | pKd [4] | koff [4] [s⁻¹] | kon [4] [M⁻¹ s⁻¹] | pKd [5] | koff [5] [s⁻¹] | kon [5] [M⁻¹ s⁻¹] | pKd [6] | koff [6] [s⁻¹] | kon [6] [M⁻¹ s⁻¹] | also measured
1 | hHC-mLC (human heavy chain-mouse light chain) chimeric plasminogen (from UniProt P00747 20-580) | 8.52 | 0.0012 | 390000 | – | – | – | – | – | – | – | – | – | – | – | – | – | – | – | –
2 | human plasminogen (natural protein) | 8.66 | 0.0006 | 270000 | – | – | – | – | – | – | – | – | – | – | – | – | – | – | – | –
3 | mHC-hLC (mouse heavy chain-human light chain) chimeric plasminogen (from UniProt P00747 581-810) | 7.80 | 0.0038 | 240000 | – | – | – | – | – | – | – | – | – | – | – | – | – | – | – | –
4 | mouse plasminogen (natural protein) | 7.85 | 0.0033 | 260000 | – | – | – | – | – | – | – | – | – | – | – | – | – | – | – | –
5 | streptokinase SK1 (natural protein) | – | – | – | 8.21 | 0.0102 | 1.65e+06 | 9.00 | 0.0016 | 1.57e+06 | 9.40 | 0.0005 | 1.48e+06 | 9.05 | 0.0015 | 1.65e+06 | 8.72 | 0.0059 | 3.03e+06 | –
6 | streptokinase SK2b (natural protein) | – | – | – | 6.62 | 0.0016 | 6000 | 6.69 | 0.0016 | 8000 | 7.14 | 0.0012 | 17000 | 7.07 | 0.0015 | 18000 | 6.73 | 0.0014 | 8000 | % active site formation in the SK2b-Pg complex (MUGB cleavage), with saturating PAM (5 uM) [7]: 33%; % active site formation in the SK2b-Pg complex (MUGB cleavage), without PAM [7]: 18%; % active site formation in the SK2b-Pg complex (MUGB cleavage), with saturating PAM (5 uM) [8]: 86%; % active site formation in the SK2b-Pg complex (MUGB cleavage), without PAM [8]: 66%; % active site formation in the SK2b-Pg complex (MUGB cleavage), with saturating PAM (5 uM) [9]: 78%; % active site formation in the SK2b-Pg complex (MUGB cleavage), without PAM [9]: 19%
